{"source": "paper PMC11532467", "target": "Glycylhalorhodopsin from Salinarimonas soli (SsGHR) (Salinarimonas soli)", "assay": "crystal structure", "data": [{"substance": "Glycylhalorhodopsin from Salinarimonas soli (SsGHR) (natural protein)", "values": [{"measurement": "stoichiometry N", "value": 3}]}]}
